In publication PMC13067816, “Alphaviral Capsid Proteins Inhibit Stress Granule Assembly via Competitive RNA Binding With G3BP1”:

target: SFV capsid (nucleocapsid N) (Semliki Forest virus (SFV4, …, UniProt P03315 1-267)); assay: fluorescence polarization; 20 nM probe, 0-8000 nM protein; FP: 50 mM Tris-HCl pH 7.4, 150 mM NaCl, 20 nM FAM-RNA, 15 min, room temperature

| Binder | binding result |
| --- | --- |
| GGUUGACGGGUCGGAUAGUUGCUU (ssRNA) [FAM-SFV gRNA probe1] | binds |
| AUGCAAAGGGCUUGGACUUGGGUGGCAGAG (ssRNA) [FAM-AHNAK probe] | binds |
| UUUGUCAAGCUCAUUUCCUGGUAUGACAAC (ssRNA) [FAM-GAPDH probe] | binds |
| GCGUCGUGUGAGCCCCCGAAAGACCACAUA (ssRNA) [FAM-SFV gRNA probe2] | binds |
